Experimental findings from patent publication US20220242962A1 (APTEVO RESEARCH AND DEVELOPMENT, published 2022) are described below.

Assay [1] concerns the target T1, Full-length Human 4-1BB (human, UniProt Q07011 24-255). Put plainly: cell-based or functional assay.
The target of assay [2] is T2, Full-length Human OX40 (human, UniProt P43489 29-277).
T2 sequence: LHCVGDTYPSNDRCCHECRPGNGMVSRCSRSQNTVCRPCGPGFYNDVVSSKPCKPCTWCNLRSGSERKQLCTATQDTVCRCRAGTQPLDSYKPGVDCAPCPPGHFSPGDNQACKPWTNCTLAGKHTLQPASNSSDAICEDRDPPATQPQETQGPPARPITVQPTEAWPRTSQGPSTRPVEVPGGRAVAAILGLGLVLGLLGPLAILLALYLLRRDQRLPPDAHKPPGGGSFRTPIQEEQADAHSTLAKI
Briefly: cell-based or functional assay.

For assay [3], the target named is T2, Full-length Human OX40. Put plainly: flow cytometry, CHO cells expressing human OX40. For orientation: Flow cytometry measures light scatter and fluorescence of single cells or particles in a stream.
In assay [4] the target is T1, Full-length Human 4-1BB. Put plainly: flow cytometry, Jurkat cells expressing human 4-1BB. As for the experimental part:
(§1) Serial dilutions of ADAPTIR™ constructs were incubated with cells transfected with human or cynomolgus ECD and subsequently labelled with a fluorescently-conjugated goat-α-human Fc secondary antibody. […] (See Example 16.)

For the next assay, the target named is T3, Full-length Cyno OX40 (cynomolgus monkey, UniProt P43489 29-277 (human entry)).
T3 construct: on CHO-K1SV cells; also called OXF004; cynomolgus OX40
T3 chain: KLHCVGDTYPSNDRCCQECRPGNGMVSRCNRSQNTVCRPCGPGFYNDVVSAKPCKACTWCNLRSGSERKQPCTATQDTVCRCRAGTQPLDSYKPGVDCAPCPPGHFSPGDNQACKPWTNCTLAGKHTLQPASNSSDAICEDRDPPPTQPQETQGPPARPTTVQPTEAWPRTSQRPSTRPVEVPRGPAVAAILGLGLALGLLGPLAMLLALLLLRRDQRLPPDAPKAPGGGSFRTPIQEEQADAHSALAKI
Briefly: flow cytometry on CHOK1SV cells transfected with cynomolgus OX40, goat anti-human Fc secondary antibody, MFI (Mean). As for the experimental part:
as §1

For a further assay, the target named is T4, Human OX40 ECD-AFH (human).
T4 construct: ECD'; entry includes the C-terminal tags; also called OXF003; Human OX40 ECD-avi-flag-his
T4 chain: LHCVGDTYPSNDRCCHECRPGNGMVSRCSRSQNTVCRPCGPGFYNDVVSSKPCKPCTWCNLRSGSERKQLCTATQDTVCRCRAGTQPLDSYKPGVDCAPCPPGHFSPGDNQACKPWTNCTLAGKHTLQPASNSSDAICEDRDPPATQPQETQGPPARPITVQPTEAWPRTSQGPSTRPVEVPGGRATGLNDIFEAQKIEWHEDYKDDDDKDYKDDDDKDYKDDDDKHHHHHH
Put plainly: SPR (T200), construct captured, monomeric ECD as analyte. As to the method: (§2) Mouse anti-human IgG (GE, BR-1008-39) at 25 μg/ml in 10 mM sodium acetate pH 5.0 was immobilized at a density of ˜10,000 response units (RU) onto each flow cell of a CM5 research-grade sensor chip (GE) by standard amine coupling chemistry. Each binding protein at approximately 100 nM in HBS-EP+ with 0.2% BSA buffer was captured in a flow cell with the immobilized anti-human IgG at a flow rate of 10 μL/min for 20 seconds, leaving one flow cell surface unmodified as the reference. Using a single-cycle kinetics mode, five different concentrations of ECD were sequentially injected through each flow cell at 30 μL/min for 300 seconds followed by a 600 second dissociation period. Regeneration was achieved by injection of 3 M MgCl₂ at a flow rate of 30 μL/min for 30 seconds followed by HBS-EP+ with 0.2% BSA buffer stabilization for 1 min.
(§3) Sensorgrams obtained from kinetic SPR measurements were analyzed by the double subtraction method. The signal from the reference flow cell was subtracted from the analyte binding response obtained from flow cells with immobilized or captured ligands. Buffer reference responses were then averaged from multiple injections. The averaged buffer reference responses were then subtracted from analyte binding responses, and the final double-referenced data were analyzed with Biacore T200 Evaluation software (2.0, GE), globally fitting data to derive kinetic parameters. All sensorgrams were fitted using a simple one-to-one binding model.

Another assay deals with T5, Human 4-1BB ECD-AFH (human).
T5 construct: entry includes the tags; also called FOB003; HUMAN CD137 ECD-AVI-FLAG-HIS
The description is as above. As to the method: as §2, §3

The target of another assay is T6, Full-length Cyno 4-1BB (cynomolgus monkey, UniProt Q07011 24-255 (human entry)).
T6 construct: on Jurkat or CHO cells; also called FOB006; cynomolgus 4-1BB
T6 chain: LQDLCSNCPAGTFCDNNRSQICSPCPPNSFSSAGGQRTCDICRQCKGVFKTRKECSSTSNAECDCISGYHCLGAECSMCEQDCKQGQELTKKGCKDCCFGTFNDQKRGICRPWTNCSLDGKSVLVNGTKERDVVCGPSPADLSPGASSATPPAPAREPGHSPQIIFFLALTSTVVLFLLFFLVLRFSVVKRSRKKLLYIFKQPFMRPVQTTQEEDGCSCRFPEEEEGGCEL
Put plainly: flow cytometry on Jurkat cells transfected with cynomolgus 4-1BB, goat anti-human Fc secondary antibody, MFI (Mean). As to the method:
as §1

T5 sequence (chain, as listed by the source limits assumed): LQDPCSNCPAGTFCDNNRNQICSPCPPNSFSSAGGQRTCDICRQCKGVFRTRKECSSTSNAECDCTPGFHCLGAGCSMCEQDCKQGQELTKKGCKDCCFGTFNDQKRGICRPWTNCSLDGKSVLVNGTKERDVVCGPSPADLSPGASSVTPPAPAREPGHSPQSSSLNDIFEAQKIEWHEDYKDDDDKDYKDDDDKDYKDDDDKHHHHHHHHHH

B1: FXX01079 (bispecific antibody)
chain: SYVLTQPPSVSVAPGQTARITCGGNNIGSKSVNWFQQKPGQAPVLVVYDDSGRPSGIPERFSGSTSGNTATLTISRVEAGDEADYYCQVWDSSSDHVVFGGGTKLTVLGGGGSGGGGSGGGGSGGGGSQVQLVESGGGVVQPGRSLRLSCAASGFTLSYYGMHWVRQAPGKGLEWVAVISHDGSDKYYADSVKGRFTISRDNSKNTLYLQMNSLRAEDTAVYYCSNDQFDPWGQGTLVTVEPKSSDKTHTCPPCPAPPAAAPSVFLFPPKPKDTLMISRTPEVTCVVVDVSHEDPEVKFNWYVDGVEVHNAKTKPREEQYNSTYRVVSVLTVLHQDWLNGKEYKCAVSNKALPAPIEKTISKAKGQPREPQVYTLPPSRDELTKNQVSLTCLVKGFYPSDIAVEWESNGQPENNYKTTPPVLDSDGSFFLYSKLTVDKSRWQQGNVFSCSVMHEALHNHYTQKSLSLSPGGGGSPSEVQLVQSGAEVKKPGASVKVSCKASGYTFTSYWMNWVRQAPGQGLEWMGNIYPSGGSTNYAQKFQGRVTMTVDTSTSTVYMELSSLRSEDTAVYYCASFSDGYYAYAMDYWGQGTLVTVSSGGGGSGGGGSGGGGSGGGGSEIVMTQSPATLSLSPGERATLSCRASQSVSSYLNWYQQKPGQAPRLLIYYASRRHTGIPARFSGSGSGTDFTLTISSLQPEDFAVYYCQQGYNLPYTFGQGTKVEIKR
notes: ADAPTIR scFv-Fc-scFv, anti-OX40 N-terminal, anti-4-1BB C-terminal; also called FX01079
As a reminder, the EC50 is the concentration that produces a half-maximal response. Low readings indicate an effect from little substance, high ones a need for much substance. As a reminder, the EC50 (read off the curve) is the concentration that produces a half-maximal response. Read a high EC50 (read off the curve) as weaker potency. One may read the Kd as the free concentration of one partner at which half of the binding sites on the other are occupied at equilibrium, for simple one-to-one binding. For orientation: koff means the rate constant with which the complex falls apart. The low end stands for slow dissociation, the high end for fast dissociation. In general, kon refers to the rate constant with which the complex forms. A higher kon goes with faster complex formation. On to B1, for which, in the assay with Full-length Human 4-1BB [1], the “4-1BB Reporter Assay EC50” value came out at 25 pM and the “4-1BB Reporter Assay Max induction” value was 6.26e+06. Further, in the assay with Full-length Human OX40 [2], the “OX40 Reporter Assay EC50” value was determined as 23 pM and the “OX40 Reporter Assay Max induction” value amounted to 470000. Moreover, in the assay with Full-length Human OX40 [3], the EC50 is 1400 pM and the “Max MFI” value was found to be 9820 MFI. In the assay with Full-length Human 4-1BB [4], the midpoint of the response, the EC50, lay at 530 pM and the “Max MFI” value was 4120 MFI. Further, the “EC50 (read off the curve)” value with Full-length Cyno OX40 was roughly 2000 pM. Moreover, in the assay with Human OX40 ECD-AFH, binding was characterised by a dissociation constant (Kd) of 300 pM, the koff amounted to 0.00012 s⁻¹ and the kon is 450000 M⁻¹ s⁻¹. Further, in the assay with Human 4-1BB ECD-AFH, the affinity, expressed as Kd, was 37000 pM; the koff turned out to be 0.0038 s⁻¹; the kon was 100000 M⁻¹ s⁻¹. The binding result with Full-length Cyno 4-1BB is “binds”.
